# Results reported in patent US20120189666A1, “PHARMACEUTICAL FORMULATIONS CONTAINING MICROPARTICLES OR NANOPARTICLES OF A DELIVERY AGENT” (priority 2004, published 2012).
# Values joined by “and” are separate entries in the source; they are usually repeats but may differ in a detail not shown here. Equal values may be shown once. Read-outs that look alike come from different tables or passages of the source.
# Legend:
# [1] = Text: (§1) This value was assumed to be constant in the estimates of absolute bioavailability.
# (§2) The portal bioavailability provides an estimate of drug absorption from oral delivery. […] This value is used to estimate bioavailability relative to subcutaneous.
# [2] = for AUC0->∞ / C0: individual animals
# Text: as §1
# [3] = Insulin from subcutaneous (SC) administration; settings: insulin dose 0.05 mg/kg
# Text: as §1, §2
# [4] = Insulin and 4-CNAB stability in simulated gastric fluid, HPLC; settings: for Insulin % of theoretical: SGF
# Method: The SGF was prepared with and without pepsin, a gastric enzyme. SGF pH 1.2 was prepared as per the USP NF 26 guidelines. 2 g sodium chloride and 3.2 g of pepsin were weighed and added to a suitable container, and deionized water was added to reach one liter in volume. If necessary, the pH was adjusted to 1.2 by addition of concentrated HCl or NaOH. A second SGF solution omitting the pepsin was also prepared.
# Four 50 ml samples of SGF (two with pepsin and two without) were placed into a jacketed vessel connected to a circulating water bath set at 37° C. The solutions were stirred with magnetic stir bars for ten minutes to allow the solutions to reach 37° C. and reach thermal equilibrium.
# The term “% of theoretical” as used herein, means the percent of the concentration (mg/mL) of withdrawn solution at the time-point the sample was taken as compared to the theoretical concentration (mg/mL) of the measuring component for experiment. The standard of deviation for the HPLC analysis is ±5%.
# [5] = Estimates of bioavailability (absolute, portal, relative to subcutaneous); settings: rat model
# Text: as §1, §2
# [6] = Stability of insulin in simulated intestinal fluid, HPLC
# Method: The SIF solutions were prepared with and without pancreatic enzyme. SIF pH 7.5 was prepared as per the USP NF 26 guidelines. SIF was prepared by addition of 6.8 g monobasic potassium phosphate and 10 g of pancreatin into a suitable vessel, and deionized water was added to reach a total volume of one liter. If necessary, the pH was adjusted to 7.5 by addition of 0.2 N sodium hydroxide. A second SIF solution omitting the pancreatin, an intestinal enzyme, was also prepared.
# Four 50 ml samples of SIF (two with pancreatin and two without) were placed into a jacketed vessel connected to a circulating water bath set at 37° C. The solutions were stirred with magnetic stir bars for ten minutes to allow the solutions to reach 37° C. and reach thermal equilibrium.
substance,measurement,setting,value
Insulin: Recombinant human zinc insulin,FPE (fH),[1]; individual animals,0.18
same,"AUC-IP, Average","[1]; portal administration, n = 5",9.65
same,maximum absolute bioavailability from oral delivery (100% GI absorption into the portal vein),"[1]; rat model, from intraportal administration",approximately 60%
same,"AUC-JV, Average","[1]; systemic administration, n = 5",15.53
same,"C0->∞/Dose, Average","[2]; IV, all doses (2.5, 8, 9 μg/kg)",0.0053 kg/mL
same,AUC0->∞,"[2]; IV, dose 8 μg/kg",99.35 ng·min/mL and 99.32 ng·min/mL and 103.4 ng·min/mL
same,C0,"[2]; IV, dose 8 μg/kg",50.67 ng/mL and 52.64 ng/mL and 49.63 ng/mL
same,"AUC0->∞, X ± SD","[2]; IV, dose 8 μg/kg, n = 3",100.7 ± 2.4 ng·min/mL
same,"AUC0->∞/Dose, X ± SD","[2]; IV, dose 8 μg/kg, n = 3",0.0126 ± 0.0003 kg·min/mL
same,"Vd, X ± SD","[2]; IV, dose 8 μg/kg, n = 3",0.157 ± 0.005 L/kg
same,AUC0->∞,"[2]; IV, dose 9 μg/kg",99.55 ng·min/mL and 75.67 ng·min/mL and 122.89 ng·min/mL
same,C0,"[2]; IV, dose 9 μg/kg",46.79 ng/mL and 36.32 ng/mL and 55.30 ng/mL
same,"AUC0->∞, X ± SD","[2]; IV, dose 9 μg/kg, n = 3",99.4 ± 23.6 ng·min/mL
same,"AUC0->∞/Dose, X ± SD","[2]; IV, dose 9 μg/kg, n = 3",0.0110 ± 0.0026 kg·min/mL
same,"C0, X ± SD","[2]; IV, dose 9 μg/kg, n = 3",46.1 ± 9.5 ng/mL
same,"Vd, X ± SD","[2]; IV, dose 9 μg/kg, n = 3",0.201 ± 0.043 L/kg
same,"kel, X ± SD","[2]; IV, dose 9 μg/kg, n = 3",0.47 ± 0.02 min⁻¹
same,"AUC0->∞/Dose, X ± SD","[2]; IV, dose […], n = 5",0.0062 ± 0.0011 kg·min/mL
same,"Vd, X ± SD","[2]; IV, dose […], n = 5",0.219 ± 0.068 L/kg
same,average insulin AUC0→∞/Dose,[2]; intravenous dosing,0.0093 kg·min/mL
same,Tmax,"[3]; per study, 0.05 mg/kg",30 min
same,Glucose,"[3]; time 0, study mean, 0.05 mg/kg",83 mg/dL and 73 mg/dL and 60 mg/dL and 68 mg/dL and 65 mg/dL and 70 mg/dL
same,Glucose,"[3]; time 15, study mean, 0.05 mg/kg",66 mg/dL and 42 mg/dL and 40 mg/dL and 45 mg/dL and 59 mg/dL
same,Glucose,"[3]; time 30, study mean, 0.05 mg/kg",60 mg/dL and 59 mg/dL and 38 mg/dL and 39 mg/dL and 64 mg/dL
same,Glucose,"[3]; time 45, study mean, 0.05 mg/kg",61 mg/dL and 64 mg/dL and 42 mg/dL and 36 mg/dL and 40 mg/dL and 69 mg/dL
same,Insulin,"[3]; time 180, study mean",8.30 uU/ml
same,insulin degraded,"[4]; SGF containing pepsin, first sampling point",97%
same,insulin remained,"[4]; SGF containing pepsin, first sampling point (0 minutes), 37° C.",3.0%
same,time insulin is stable,[4]; SGF without pepsin,≥ 2 h
same,Insulin % of theoretical,"[4]; insulin with 4-CNAB and enzymes (pepsin), 37° C., 0 minutes",3.0%
same,Insulin % of theoretical,"[4]; insulin with 4-CNAB and no enzymes, 24 h",0%
same,Insulin % of theoretical,"[4]; insulin without 4-CNAB and with enzymes (pepsin), 37° C., 0 minutes",3.0%
same,Insulin % of theoretical,"[4]; insulin without 4-CNAB and without enzymes, 24 h",0%
same,absolute bioavailability from SC,[5],approximately 56%
same,stability of insulin,[6]; SIF in presence of the enzyme (pancreatin),degrades
same,stability of insulin,[6]; SIF without pancreatin,stable
same,Insulin % of theoretical,"[6]; SIF, insulin with 4-CNAB and enzymes (pancreatin), 6 minutes",5.4%
